# Laboratory results: IntAct's records for PubMed 26211610
# B1: Translation initiation factor eIF2 assembly protein (Saccharomyces cerevisiae), Q05791 (parent)
# chain: MSSQEYTTFIDIPVTRAQVEHCSYSFWSSLYPKYVPKSIVLKSLPKKFIQYLEQDGIKLPQEENSRSVYTEEIIRNEDNDYSDWEDDEDTATEFVQEVEPLIDFPELHQKLKDALNELGAVAPKLNWSAPRDATWILPNNTMKCNEVNELYLLLNASNYIMHDLQRAFKGCVDGDDIKGLKFDLVLRQWCDMNPALEFRVFVKNAHIVGATQRDLNYYDYLDELSDTFKDLIDEIVHDVVLPKFPDKSFVLDVYIPRPFNKIFIVDINPFARKTDSLLFSWNEIAAIAPPKNDVEDYELRLVTRHNTGRFASKEHSENHVPQDLVEASLNPEAIRELTQKWKELLSQQAKEESSDSENET
# Variants of: B1
# Conditions: with if2g_yeast GCD11, P32481
# if2g_yeast GCD11, P32481, sequence (P32481 whole entry): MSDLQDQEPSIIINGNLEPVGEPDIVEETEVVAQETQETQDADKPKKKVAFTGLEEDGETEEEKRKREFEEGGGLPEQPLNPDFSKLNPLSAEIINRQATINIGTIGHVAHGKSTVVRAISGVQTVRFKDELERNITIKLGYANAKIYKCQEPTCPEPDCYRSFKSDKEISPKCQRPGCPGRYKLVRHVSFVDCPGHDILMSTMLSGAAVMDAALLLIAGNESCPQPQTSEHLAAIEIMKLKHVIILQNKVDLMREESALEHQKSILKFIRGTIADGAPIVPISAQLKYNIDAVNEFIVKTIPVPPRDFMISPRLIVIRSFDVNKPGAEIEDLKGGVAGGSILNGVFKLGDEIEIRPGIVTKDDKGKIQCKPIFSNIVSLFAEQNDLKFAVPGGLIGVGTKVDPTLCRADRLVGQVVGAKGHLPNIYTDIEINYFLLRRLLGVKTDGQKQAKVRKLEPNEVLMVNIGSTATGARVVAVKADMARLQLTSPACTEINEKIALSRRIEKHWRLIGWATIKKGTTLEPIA
row,effect of a mutation on the interaction,Variant
1,decreasing interaction strength,MSSQEYTTFIDIPVTRAQVEHCSYSFWSSLYPKYVPKSIVLKSLPKKFIQYLEQDGIKLPQEENSRSVYTEEIIRNEDNDYSDWEDDEDTATEFVQEVEPLIDFPELHQKLKDALNELGAVAPKLNWSAPRDATWILPNNTMKCNEVNELYLLLNASNYIMHDLQRAFKGCVDGDDIKGLKFDLVLRQWCDMNPALEFRVFVKNAHIVGATQRDLNYYDYLDELSDTFKDLIDEIVHDVVLPKFPDKSFVLDVYIPRPFNKIFIVAAAPFARKTDSLLFSWNEIAAIAPPKNDVEDYELRLVTRHNTGRFASKEHSENHVPQDLVEASLNPEAIRELTQKWKELLSQQAKEESSDSENET [D266A;I267A;N268A]
